“And” between values parts separate entries of the source, which are not always exact repeats. Equal entries are not always repeated. Where two headings read alike, the source gives them in different places. One block for each molecule: values may come before it. * marks the point of attachment. monopropargyl‑cryptophane‑A = monopropargyl-cryptophane-A, coupled to the azido-peptide by Cu(I)-mediated coupling; 3‑azidopropionyl = [N-]=[N+]=NCCC(=O)*
Columns and labels:
[1] = test system: Trp-containing hexapeptide LWRSRK 3; assay: Stern-Volmer fluorescence quenching of hexapeptide 3 by cleaved biosensor II; format: binding; conditions: 3 at 16 μM, II 0-120 μM, 298 K, standard buffer; listed as II
Procedure: Solution of 3 was titrated with 3.18 mM II, to achieve concentrations of II between 0 and 120 μM. Steady-state fluorescence measurements found the ratio of initial fluorescence, F0, to observed fluorescence, F, at each quencher concentration. The linear fit gave an R^2 value of 0.88, which indicated a dominant static quenching mechanism. The slope of this line gave the association constant, KS=9000 M^−1, for the II-3 complex.
Having ruled out a prevalent role for intra- and intermolecular interactions within or between biosensors, we sought further to explain the decrease in Trp fluorescence upon enzymatic cleavage. […] To examine this quenching mechanism, the steady-state fluorescence intensity of the hexapeptide LWRSRK 3 was measured as a function of the cleaved sensor II (putative quencher) concentration in standard buffer. This Stern-Volmer experiment could only be performed within a limited range of II concentrations, due to limitations in the quantity of material and the contribution of this compound to total fluorescence. […] All fluorescence spectra were corrected to remove contributions from cryptophane. The resulting fluorescence maximum at 358 nm, which corresponded to Trp emission of I, decreased with successive additions of II. […]

[2] = concentration dependence of fluorescence intensity (aggregation); format: physicochemical; conditions: fluorescence intensity linear over 1-250 μM, standard buffer
Procedure: Solutions were at room temperature in standard buffer. The fluorescence intensity for each compound at a given wavelength and concentration was normalized to its value at the maximum biosensor concentration, in order to facilitate comparison and show linearity over a large concentration range.
Experiments were performed to identify the important contributions to the observed Trp fluorescence quenching. In the fully extended biosensor I (FIG. 1) cryptophane and Trp were separated by approximately 40 Å. Temperature dependence studies identified little contribution to Trp quenching from the cryptophane within the intact biosensor I. The observed decrease in Trp fluorescence at elevated temperatures (λem=358 nm, F/F0=0.3 at 353 K) was virtually identical to that seen with the Trp-containing hexapeptide 3, and was thus attributed to temperature-dependent solvent quenching by non-radiative decay processes. […] This was confirmed with I and II by comparing the concentration dependence of fluorescence intensity (λex=295 nm, λem=318 nm for cryptophane and λem=358 nm for Trp), after correcting for inner filter effects and dilution. Neither compound's fluorescence intensity deviated from linearity over the concentration range, 1-250 μM (FIG. 8). The absorption and fluorescence maxima were unchanged over this range.

MMP-7 [3] = biological target: T1, MMP-7 (Homo sapiens, UniProt P09237); assay: MMP-7 enzyme kinetic parameters, Michaelis-Menten fit of initial velocities; format: biochemical
T1 construct: BIOMOL International LP, MMP-7 (recombinant, catalytic domain); purchased BIOMOL International LP
T1 sequence (P09237 95-267): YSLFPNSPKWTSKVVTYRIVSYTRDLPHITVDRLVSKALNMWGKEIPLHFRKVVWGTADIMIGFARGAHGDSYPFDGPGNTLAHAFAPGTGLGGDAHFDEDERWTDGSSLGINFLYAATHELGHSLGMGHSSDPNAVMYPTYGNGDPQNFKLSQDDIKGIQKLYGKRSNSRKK
Procedure: (§1) At rt, an aliquot (2 μL) of active MMP-7 (0.454 μg/μL) was added into 0.998 mL of a freshly prepared solution of biosensor I at a known concentration in standard buffer. The extinction coefficient of I, ε=15,000 M^−1 cm^−1 at 280 nm in water, was determined from a solution containing the weighed sample. At approximately 3 min intervals, 70 μL aliquots were removed from the reaction mixture and immediately quenched with 30 μL of a 40 mM EDTA solution. Each aliquot was analyzed by HPLC with the gradient: time 0, A/B=75/25; 0-30 min, linear increase to A/B=45/55; 30-32 min, linear change to A/B=20/80; 32-42 min, A/B=20/80. The retention times for I and II were 15.6 min and 17.9 min, respectively. The enzyme activity was determined from the initial rate of increase in the concentration of cleaved sensor II, during the consumption of the first 10-15% of substrate I. The absorbance at 280 nm of the growing peak at 17.9 min was integrated and compared for each time point. Initial velocities were measured at substrate I concentrations of 6, 16, 28, 38, 48, 74 and 100 μM.
(§2) The kcat/KM value for all peptide substrates was calculated based on the Michaelis-Menten equation (Equation 1) after fitting the activity data at varying substrate concentrations with a non-linear regression curve: […]
(§3) For the azidopeptide substrate 1, enzyme activity was determined similarly by HPLC with the gradient: time 0, A/B=90/10; 0-30 min, linear increase to A/B=60/40; 30-32 min, linear change to A/B=20/80; 32-42 min, A/B=20/80. Peak areas were monitored for the intact substrate 1 and cleaved hexapeptide product 3 at retention times of 17.0 and 10.3 min, respectively. Initial velocities were measured at substrate 1 concentrations of 6, 50, 100, and 870 μM.
(§4) For the fluorometric enzymatic assay, an aliquot (2 μL) of active MMP-7 (0.454 μg/μL) was added into 0.998 mL solution of ^129Xe biosensor I with known concentration at 298 K. Fluorescence spectra were collected from 310-450 nm. […]

MMP-7 [4] = biological target: T1, MMP-7; assay: fluorometric MMP-7 enzymatic assay (Trp fluorescence); format: biochemical
Procedure: Fluorescence spectra of I and II dissolved in standard buffer (λex=295 nm) were measured in small volume, 1-cm pathlength quartz cuvettes at 298 K using a Varian Cary Eclipse fluorescence spectrophotometer operated with the Cary Eclipse Bio software package (1 nm steps, 5 nm excitation and emission slits). Kinetics data were collected at 30 s intervals using the same software on samples with controlled temperature and stirring.
For the fluorometric enzymatic assay, an aliquot (2 μL) of active MMP-7 (0.454 μg/μL) was added into 0.998 mL solution of ^129Xe biosensor I with known concentration at 298 K. Fluorescence spectra were collected from 310-450 nm. All reported fluorescence data are uncorrected and are roughly 5 nm red-shifted from the values obtained when the instrumental correction feature is employed. Trp fluorescence at 400 nm was analyzed as a function of time, since there was little contribution at this wavelength from monopropargyl-cryptophane-A fluorescence. The enzyme activity was calculated from the initial rate of decrease in Trp emission at 400 nm, over the time interval that corresponded to the first 10-15% completion of the reaction. The kcat/KM value for biosensor I was calculated by non-linear regression of the activity data by varying the biosensor concentration from 6-100 μM; double-reciprocal 1/v versus 1/[S] Lineweaver-Burk plots^49 gave a similar kcat/KM value.
In enzyme kinetics studies, the fluorescence spectrum of I was taken at 30 s intervals after addition of MMP-7 (FIG. 7b). A continuous decrease of Trp emission was observed. The change in fluorescence intensity at 400 nm was used to calculate the initial velocity (v) of the enzyme reaction. The v values determined by HPLC and fluorometric methods were in excellent agreement (Table 1), which validated using the fluorometric assay to monitor this enzyme reaction. The Trp fluorescence assays were easier to run, allowed continuous monitoring of the reaction, provided greater sensitivity, and required less material than HPLC-based UV-vis absorbance measurements.

MMP-7 [5] = biological target: T1, MMP-7; assay: MMP-7 enzymatic assay monitored by HPLC (UV-vis); format: biochemical
Procedure: as §1, §3
The ability of MMP-7 to hydrolyze ^129Xe biosensor I was initially confirmed by HPLC analysis (FIG. 3a). A standard assay was performed by incubating a 1 mL reaction mixture of 32 nmol I and 42 pmol MMP-7 at 310 K. Reaction progress was monitored by analyzing aliquots of the reaction mixture at regular intervals. […] MALDI-TOF mass spectrometry identified these new peaks as the cleaved hexapeptide LWRSRK 3 and cryptophane-peptide product II, respectively. The peptide cleavage pattern agreed with previous assays using this substrate. […]

MMP-7 [6] = biological target: T1, MMP-7; conditions: reported previously at 303 K; cited from earlier work
hexapeptide LWRSRK = biological target: T2, hexapeptide LWRSRK; assay: Stern-Volmer steady-state Trp fluorescence quenching; hexapeptide 3 (16 µM) titrated with II (0-120 µM), 298 K, standard buffer
T2 sequence (peptide): LWRSRK

[7] = biological target: T3, azidopeptide N3-CH2CH2-CONH2-RKRPLALWRSRK
T3 chain: RKRPLALWRSRK

[8] = biological target: T4, MMP-7-responsive 129Xe biosensor I (monopropargyl-cryptophane-A coupled to azidopeptide RKRPLALWRSRK)
T4 chain: RKRPLALWRSRK

[9] = substrate: CC(C)C[C@H](NC(=O)[C@H](C)NC(=O)[C@H](CC(C)C)NC(=O)[C@@H]1CCCN1C(=O)[C@H](CCCNC(=N)N)NC(=O)[C@H](CCCCN)NC(=O)[C@H](CCCNC(=N)N)NC(=O)CCN=[N+]=[N-])C(=O)N[C@@H](Cc1c[nH]c2ccccc12)C(=O)N[C@@H](CCCNC(=N)N)C(=O)N[C@@H](CO)C(=O)N[C@@H](CCCNC(=N)N)C(=O)N[C@@H](CCCCN)C(=O)O; assay: MMP-7 enzyme kinetic parameters, Michaelis-Menten fit of initial velocities; format: biochemical; conditions: other: MMP-7 42 nM, 298 K, standard buffer
Procedure: as §1, §2, §3, §4

[10] = MMP-7 42 nM, 298 K, standard buffer

Molecule: Biosensor II: monopropargyl-cryptophane-A 7 coupled to azidopeptide 2 (RKRPLA); MMP-7 cleaved product of I ({monopropargyl‑cryptophane‑A-3‑azidopropionyl (triazole link)}-RKRPLA-OH)
association constant KS of the II-3 complex [1]: 9000 ± 1000 M⁻¹ and 9000 M⁻¹ | aggregation in solution [2]: unlikely to aggregate

Initial velocity, fluorometric assay (MMP-7 [4]; Biosensor I 6 μM): 0.9 pmol/s | Initial velocity, fluorometric assay (MMP-7 [4]; Biosensor I 50 μM): 9 pmol/s | Initial velocity, fluorometric assay (MMP-7 [4]; Biosensor I 100 μM): 8 pmol/s | Initial velocity, HPLC assay (MMP-7 [5]; Biosensor I 6 μM): 1 pmol/s | Initial velocity, HPLC assay (MMP-7 [5]; Biosensor I 50 μM): 10 pmol/s | Initial velocity, HPLC assay (MMP-7 [5]; Biosensor I 100 μM): 7 pmol/s
Molecule: Biosensor I: monopropargyl-cryptophane-A 7 coupled by [3+2] cycloaddition to azidopeptide 1 (RKRPLALWRSRK); MMP-7-responsive 129Xe biosensor ({monopropargyl‑cryptophane‑A (triazole via Cu(I) (3+2) cycloaddition)-3‑azidopropionyl}-RKRPLALWRSRK-OH)
fold lower Vmax relative to substrate 1 (MMP-7 [3]): 3.6 fold | Km (MMP-7 [3]; [10]): 43 µM | Vmax (MMP-7 [3]; [10]): 1.3e-08 M/s | aggregation in solution [2]: unlikely to aggregate

Molecule: dinitrophenyl-Arg-Pro-Leu-Ala-Leu-Trp-Arg-Ser
Km (MMP-7 [6]): 26 µM

Ka (hexapeptide LWRSRK): 9000 M⁻¹
B1: cleaved biosensor II (monopropargyl-cryptophane-A coupled to azidopeptide RKRPLA) (peptide)
peptide: {monopropargyl‑cryptophane‑A (via triazole, CuAAC)-3‑azidopropionyl}-RKRPLA-OH

B2: MMP-7 (Homo sapiens) (protein)
chain: T1 sequence (P09237 95-267)
notes: BIOMOL International LP, MMP-7 (recombinant, catalytic domain); purchased BIOMOL International LP
KM [7]: 150 µM | Vmax [7]: 4.7e-08 M/s | kcat/KM [7]: 7300 M⁻¹ s⁻¹ | KM [8]: 43 µM | Vmax [8]: 1.3e-08 M/s | initial velocity v of proteolysis of biosensor I by MMP-7 (42 nM), fluorometric assay, 298 K; shown without a printed number [8]: v rises with [Biosensor I] from about 1 nM s-1 at about 6 µM to about 8-9 nM s-1 at 74-100 µM; the Michaelis-Menten fit line is still rising at 100 µM, no upper plateau inside the range | kcat/KM [8]: 7200 M⁻¹ s⁻¹ | Km [9]: 150 µM | Vmax [9]: 2.82 µM/min | kcat/Km [9]: 7300 M⁻¹ s⁻¹

Reference: patent publication US8470587B2, “129Xe biosensors and their use” (The Trustees of the University of Pennsylvania, priority 2006, dated 2013)
